Results: publication PMC7416571 (Journal of molecular biology, 2019)
Residue numbers refer to the chain shown, from its start.

Experiments:
Assay in all cases: AUC
AUC = target: the molecule itself
[1] = target: T1, phage λ terminase large subunit TerL^λ, wild type (phage λ, UniProt P03708 1-641)
T1 sequence (looked up): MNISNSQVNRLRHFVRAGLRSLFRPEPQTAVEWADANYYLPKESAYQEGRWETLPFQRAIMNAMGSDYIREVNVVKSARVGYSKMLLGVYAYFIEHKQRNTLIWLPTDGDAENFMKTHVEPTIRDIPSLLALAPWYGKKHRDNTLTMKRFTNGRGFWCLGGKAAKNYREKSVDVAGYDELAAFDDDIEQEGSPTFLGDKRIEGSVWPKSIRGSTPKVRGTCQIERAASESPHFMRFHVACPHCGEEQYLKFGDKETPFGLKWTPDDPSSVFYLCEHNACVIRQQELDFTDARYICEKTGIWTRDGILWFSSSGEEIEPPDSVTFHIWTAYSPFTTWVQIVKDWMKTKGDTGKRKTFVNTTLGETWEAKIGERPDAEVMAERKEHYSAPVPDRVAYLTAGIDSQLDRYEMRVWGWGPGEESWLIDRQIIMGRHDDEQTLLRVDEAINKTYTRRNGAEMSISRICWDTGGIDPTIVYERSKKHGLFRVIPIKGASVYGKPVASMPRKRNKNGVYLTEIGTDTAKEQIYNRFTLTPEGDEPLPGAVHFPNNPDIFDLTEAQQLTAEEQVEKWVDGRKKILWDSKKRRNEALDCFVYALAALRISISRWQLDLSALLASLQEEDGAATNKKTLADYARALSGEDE

[2] = target: T2, phage λ terminase large subunit TerL^λ-D178N (phage λ, UniProt P03708 1-641, D178N)
T2 sequence (looked up): T1 sequence (looked up) with D178N

Measured: binding result

B1: phage λ terminase small subunit TerS^λ (natural protein, UniProt P03707 1-181, looked up)
chain: MEVNKKQLADIFGASIRTIQNWQEQGMPVLRGGGKGNEVLYDSAAVIKWYAERDAEIENEKLRREVEELRQASEADLQPGTIEYERHRLTRAQADAQELKNARDSAEVVETAFCTFVLSRIAGEIASILDGLPLSVQRRFPELENRHVDFLKRDIIKAMNKAAALDELIPGLLSEYIEQSG
binds: all assays above
